Measurements reported in patent US20110251266, “APTAMER FOR NGF AND USE THEREOF” (Shionogi & Co., Ltd., published 2011).

B1: SEQ60 aptamer (ssRNA)
RNA: GGGAGAACUUCGACCAGAGGAUUUGAAAAAAACCCGAAUAAAGAUAACAGUAUGUGCGCAUACAUGGAUCCUCA
modifications: 2'-F pyrimidines
B2: SEQ30(1) (ssRNA)
RNA: GGGAUAAAAAUAGAGUUUGAUAAACACCUGUAUUAAAACCC
modifications: 2'-F all pyrimidines; 2'-OMe at a12,g13,a14,g15,g19,a20,a22,a23,a24,a26; idT at 5' and 3' ends
B3: SEQ35(2) (ssRNA)
RNA: GGGAAGCCUGUGGAGCUGCAGGAUGAAAAAAACCCAAA
modifications: 2'-F all pyrimidines; 2'-OMe at a4,a5,g6,g10,g18,a20,g21,g22,a29,a30,a31,a32; idT at 5' and 3' ends
B4: SEQ32(1) (ssRNA)
RNA: UGUGGAGCUGCUUAAACAAGCAAGUGAAAAAAACCACA
modifications: 2'-F all pyrimidines; 2'-OMe at g10,a14,a15,a16,a18,a19,g20,a22,a23,g24; idT at 5' and 3' ends
B5: SEQ68 aptamer (ssRNA)
RNA: GGGAGAACUUCGACCAGAAGUCGAGAGCGAAAGAAACUCCCAAAACACAGUAUGUGCGCAUACAUGGAUCCUCA
modifications: 2'-F pyrimidines
B6: SEQ44 aptamer (ssRNA)
RNA: GGGGAACUUCGACCAGAAGUUUGAAAGAAACCCAAAAUUAGCACCAUAAUAUGUGCGCAUACAUGGAUCCUCA
modifications: 2'-F pyrimidines

What follows are binders tested against T1, beta-NGF (nerve growth factor) (Homo sapiens, UniProt P01138 P01138:122-241) (assay: SPR; NGF-TrkA and NGF-P75; no PC-12 inhibition). Settings: tags: R&D Systems human NGF; chain copies: 2.
Description: (§1) As directed in BIAcore Company's protocol, Protein A (21181, PIERCE) was immobilized on a CM5 sensor chip. About 1100 RU of human Trk A-Fc fused with the Fc portion of IgG (175-TK, R&D systems) was immobilized thereon. As the analyte, a mixture of NGF (0.1 μM) and each aptamer (0.33 μM) was injected after being allowed to stand for 30 minutes. […] When NGF binds stronger to a receptor than an aptamer, the aptamer may be removed and NGF may bind to the receptor. […] Using the binding amount of NGF and NGF receptor without an aptamer as 100, the binding amount of NGF and NGF receptor added with an aptamer was determined as a correction value. Here, the binding amount is the RU value at the peak top of the sensorgram of BIAcore (RU value immediately after completion of NGF injection). […] A similar experiment was performed for another receptor P75 (p75-Fc; R&D systems).

T1 sequence (P01138 122-241, one chain of several): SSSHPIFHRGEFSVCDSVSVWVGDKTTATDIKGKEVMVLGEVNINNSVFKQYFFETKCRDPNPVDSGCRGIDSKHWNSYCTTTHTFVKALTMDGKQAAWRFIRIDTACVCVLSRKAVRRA

Binder | activity [% inhibition]
GGGAAGCCUGUAAACAGCAGGAUGAAAAAAACCC (ssRNA, 2'-F pyrimidines) [SEQ89 aptamer] | ≥ 60
UGUGGAGCUGCUAAACAGCAAGUGAAAAAAACCACA (ssRNA, 2'-F pyrimidines) [SEQ33 aptamer] | ≥ 60
GGGAGCUGCUUAAACAAGCAAGUGAAAAAAACCC (ssRNA, 2'-F pyrimidines) [SEQ31 aptamer] | ≥ 60
GGGAAGCCGUGGAGCUGCGGAUGAAAAAAACCC (ssRNA, 2'-F pyrimidines) [SEQ88 aptamer] | ≥ 60
GGGAAGCCUGUGGAGCUGCAGGAUGAAAAAAACCC (ssRNA, 2'-F pyrimidines) [SEQ36 aptamer] | ≥ 60
GGGAAGCCUGUGGAGCUGCAGGAUGAAAAAAACCCAAAAUUAAAU (ssRNA, 2'-F pyrimidines) [SEQ27 aptamer] | ≥ 60
GGGAGCCUGUAAACAGCAGGUGAAAAAAACCC (ssRNA, 2'-F pyrimidines) [SEQ90 aptamer] | ≥ 60
GGAGCUGCCUACACUUUAGUAUGACAAACCUAGAGUGUAAAUGCUUC (ssRNA, 2'-F pyrimidines) [SEQ25 aptamer] | ≥ 60
GUGGAGCUGUUAAACAACAAGUGAAAAAAACCAC (ssRNA, 2'-F pyrimidines) [SEQ34 aptamer] | ≥ 60
GGGCUGUGGAGCUGCUUAAACAAGCAAGUGAAAAAAACCACAGCCC (ssRNA, 2'-F pyrimidines) [SEQ26 aptamer] | ≥ 60

What follows are binders tested against T1, beta-NGF (nerve growth factor) (assay: SPR; blocks NGF-TrkA and NGF-P75; PC-12 neurite inhibition + (Table 2)). Settings: tags: R&D Systems; chain copies: 2.
Description: as §1

Binder | activity [% inhibition]
GGGAUAAAAAUAGAGUUUGAUAAACACCUGUAUUAAAACCC (ssRNA, 2'-F all pyrimidines) [SEQ30 aptamer] | ≥ 60
UGUGGAGCUGCUUAAACAAGCAAGUGAAAAAAACCACA (ssRNA, 2'-F all pyrimidines) [SEQ32 aptamer] | ≥ 60

What follows are binders tested against T1, beta-NGF (nerve growth factor) (assay: SPR; more than 30N; inhibits TrkA and P75 binding). Settings: tags: R&D Systems human NGF; chain copies: 2.
Description: as §1

Binder | binding result
B1 | binds

What follows are binders tested against T1, beta-NGF (nerve growth factor) (assay: cell_activity; PC-12 neurite outgrowth, 500 nM aptamer). Settings: tags: R&D Systems; chain copies: 2.
Description: The physiological activity of aptamer was evaluated by a neurite outgrowth suppressive experiment using PC-12 cells. PC-12 cell, which is a cell line derived from rat adrenal gland pheochromocytoma, is a model cell of the nervous system, elongates neurite by NGF stimulation, and differentiates like nerve cells. Whether or not an aptamer inhibits the neurite outgrowth was evaluated. PC-12 cells were seeded on a 96 well flat-bottom plate coated with collagen, and a mixed solution of NGF (final concentration 25 ng/ml, or 1.9 nM) prereacted for 1 hr at 37° C. and an aptamer (final concentration 500 nM) was added to start the cell culture. Thereafter, the same amount of the aptamer was added twice every 24 hr and the level of neurite outgrowth was observed and evaluated on day 3 with a microscope. For evaluation, scores 0-3 were used, where score 0 is no neurite outgrowth, score 1 is slight neurite outgrowth, score 2 is neurite outgrowth to the nearby cell, and score 3 is markedly reticulated neurite outgrowth. The system wherein PC-12 cells were cultivated for 3 days with the addition of NGF alone was taken as a negative control, and system capable wherein the cells for 3 days without addition of NGF was taken as a positive control. […] Setting the score of the negative control as inhibitory activity 0%, and the score of the positive control as inhibitory activity 100%, the inhibitory activity (%) of the aptamer was calculated. An inhibitory activity of not less than 50% is shown with +, and that of less than 50% is shown with −.

Binder | activity [% inhibition]
B2 | ≥ 50
GGGAUAAAAAUAGAGUUUGAUAAACACCUGUAUUAAAACCC (ssRNA, 2'-F all pyrimidines; 2'-OMe at a35,a36) [SEQ30(3)] | ≥ 50
GGGAUAAAAAUAGAGUUUGAUAAACACCUGUAUUAAAACCC (ssRNA, 2'-F all pyrimidines; 2'-OMe at a9,a10) [SEQ30(2)] | ≥ 50
GGGAAGCCUGUGGAGCUGCAGGAUGAAAAAAACCCAAA (ssRNA, 2'-F all pyrimidines; 2'-OMe at a36,a37,a38) [SEQ35(3)] | ≥ 50
B3 | ≥ 50
UGUGGAGCUGCUUAAACAAGCAAGUGAAAAAAACCACA (ssRNA, 2'-F all pyrimidines; 2'-OMe at a30,a31) [SEQ32(3)] | ≥ 50
B4 | ≥ 50
UGUGGAGCUGCUUAAACAAGCAAGUGAAAAAAACCACA (ssRNA, 2'-F all pyrimidines; 2'-OMe at g2,a38) [SEQ32(2)] | ≥ 50

What follows are binders tested against T1, beta-NGF (nerve growth factor) (assay: cell_activity; Neuroscreen-1 neurite outgrowth, 1.1 nM NGF). Settings: tags: R&D Systems human NGF; chain copies: 2.
Description: The neurite outgrowth inhibitory activity of aptamer was evaluated by using Neuroscreen-1 cell, which is a subclone of PC-12 cells. 2500 Cells per well were cultured for one day in an RPMI-1640 medium containing 2.5% horse serum and 1.25% fetal bovine serum in a 96 well flat-bottom plate coated with collagen type IV. A mixed solution of NGF (final concentration 15 ng/ml or 1.1 nM) prereacted in a serum-free RPMI-1640 medium at room temperature or 37° C. for 30 min to 1 hr and an aptamer (final concentration 500-3 nM) was added. Two or three days later, the cytoplasm and nuclei were stained using Cellomics Neurite Outgrowth Kits (manufactured by Thermo Scientific), and neurite length per cell was measured by Cellomics ArrayScan VTI (manufactured by Thermo Scientific). With the neurite length per cell obtained by culturing the cell for 2 days with the addition of NGF alone as inhibitory activity 0%, and that of the cell obtained by NGF free culture as inhibitory activity 100%, the inhibitory activity of the aptamer was calculated from the neurite length per cell obtained by culturing with the addition of NGF and the aptamer in mixture. […] When the inhibitory activity was 0% or below, ‘0%’ is indicated. […] The 50% inhibitory concentration was determined from the concentrations at two, above and below points sandwiching the 50% inhibitory activity.

Binder | IC50 [nM]
B5 | 1.9

The binders below were run against T1, beta-NGF (nerve growth factor) (assay: cell_activity; 100 nM aptamer; parent 92.7%). Settings: tags: R&D Systems human NGF; chain copies: 2.
Description: The neurite outgrowth inhibitory activity of aptamer was evaluated by using Neuroscreen-1 cell, which is a subclone of PC-12 cells. 2500 Cells per well were cultured for one day in an RPMI-1640 medium containing 2.5% horse serum and 1.25% fetal bovine serum in a 96 well flat-bottom plate coated with collagen type IV. A mixed solution of NGF (final concentration 15 ng/ml or 1.1 nM) prereacted in a serum-free RPMI-1640 medium at room temperature or 37° C. for 30 min to 1 hr and an aptamer (final concentration 500-3 nM) was added. Two or three days later, the cytoplasm and nuclei were stained using Cellomics Neurite Outgrowth Kits (manufactured by Thermo Scientific), and neurite length per cell was measured by Cellomics ArrayScan VTI (manufactured by Thermo Scientific). With the neurite length per cell obtained by culturing the cell for 2 days with the addition of NGF alone as inhibitory activity 0%, and that of the cell obtained by NGF free culture as inhibitory activity 100%, the inhibitory activity of the aptamer was calculated from the neurite length per cell obtained by culturing with the addition of NGF and the aptamer in mixture. […] When the inhibitory activity was 0% or below, ‘0%’ is indicated. When it was not less than 100%, ‘100%’ is indicated. The 50% inhibitory concentration was determined from the concentrations at two, above and below points sandwiching the 50% inhibitory activity.
Inverted dT is added to the 5′ and 3′ terminals. The activity was evaluated using Neuroscreen-1 cells in the same manner as in Example 8.

Binder | activity [% inhibition]
CGGAUAAAAAUAGAGUUUGAUAAACACCUGUAUUAAAACCG (ssRNA, as SEQ30(6) [as SEQ30(6) (positions not stated)]) [SEQ30(6) G1:C41 to C:G] | 92
GGGAUAAAAUUAGAGUUUGAUAAACACCUGUAAUAAAACCC (ssRNA, as SEQ30(6) [as SEQ30(6) (positions not stated)]) [SEQ30(6) A10:U33 to U:A] | 80.8
GGGAUAAAAAUUGAGUUUGAUAAACACCUGAAUUAAAACCC (ssRNA, as SEQ30(6) [as SEQ30(6) (positions not stated)]) [SEQ30(6) A12:U31 to U:A] | 93.1

What follows are binders tested against T1, beta-NGF (nerve growth factor) (assay: SPR; more than 30N; cell IC50 26.1 nM). Settings: tags: R&D Systems human NGF; chain copies: 2.

Binder | binding result
B6 | binds

These binders were tested against T1, beta-NGF (nerve growth factor) (assay: cell_activity; Neuroscreen-1 neurite outgrowth; 92% inhibition at 300 nM (Table 5)). Settings: tags: R&D Systems human NGF; chain copies: 2.

Binder | IC50 [nM]
GGGAAGCCUGUGGAGCUGCAGGAUGAAAAAAACCCAAA (ssRNA, 2'-F pyrimidines) [SEQ35 aptamer] | 91.5
